{"source": "patent US20240309073A1", "about": "(SERUM INSTITUTE OF INDIA PRIVATE, published 2024)", "binders": {"B1": {"name": "Dengue (VIS513) Monoclonal antibody (antibody, human IgG1, kappa, V domains shown)", "VH": "QVQLVQSGAEVKKPGASVKVSCKAGFNIKDVYMSWVRQAPEQGLEWMGRIDPENGDTKYDPKLQGRVTMTADTSTNTAYMELRSLRSDDTAVYYCARGWEGFAYWGQGTLVTVSS", "VL": "DIVMTQSPASLAVSLGERATISCRASENVDKYGNSFMHWYQQKPGQPPKLLIYRASELQWGVPDRFSGSGSGTDFTLTISSLQAEDVAVYYCQRSNEVPWTFGQGTKLEIKR"}}, "assay_in_all_cases": "cell-based or functional assay", "key": {"[1]": {"target": "T1, Dengue virus serotype DV4 (Dengue virus serotype 4 (DV4), UniProt P09866 280-774)", "T1 sequence (P09866 280-774 limits assumed)": "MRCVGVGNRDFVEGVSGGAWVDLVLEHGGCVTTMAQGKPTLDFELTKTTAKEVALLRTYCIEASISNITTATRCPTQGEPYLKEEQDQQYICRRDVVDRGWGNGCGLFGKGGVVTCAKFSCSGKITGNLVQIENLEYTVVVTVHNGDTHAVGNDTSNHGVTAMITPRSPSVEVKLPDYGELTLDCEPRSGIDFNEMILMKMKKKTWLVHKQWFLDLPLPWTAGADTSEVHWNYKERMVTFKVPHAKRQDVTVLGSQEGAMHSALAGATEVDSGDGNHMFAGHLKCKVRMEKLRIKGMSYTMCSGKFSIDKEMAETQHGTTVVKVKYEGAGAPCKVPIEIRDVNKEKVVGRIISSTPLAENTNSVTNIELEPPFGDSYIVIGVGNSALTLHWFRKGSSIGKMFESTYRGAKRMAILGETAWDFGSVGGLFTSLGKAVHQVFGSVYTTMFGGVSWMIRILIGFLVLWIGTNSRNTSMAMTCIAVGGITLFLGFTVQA"}, "[2]": {"target": "T2, Dengue virus serotype DV2 (Dengue virus serotype 2 (DV2), UniProt P29990 281-775)"}, "[3]": {"target": "T3, Dengue virus serotype DV3 (Dengue virus serotype 3 (DV3), UniProt Q6YMS4 281-773)"}, "[4]": {"target": "T1, Dengue virus serotype DV4", "remark": "listed apart in the source"}, "[5]": {"target": "T2, Dengue virus serotype DV2", "remark": "listed apart in the source"}, "[6]": {"target": "T3, Dengue virus serotype DV3", "remark": "listed apart in the source"}, "[7]": {"target": "T2, Dengue virus serotype DV2", "remark": "listed apart in the source"}}}
{"binder": "B1", "values": [{"measurement": "EC50 (ng/ml) by PRNT assay; Batch 1, stored at 2-8° C., 0 day", "setting": "[1]", "result": 30.3, "unit": "ng/mL"}, {"measurement": "EC50 (ng/ml) by PRNT assay; Batch 1, stored at 2-8° C., 3 months", "setting": "[1]", "result": 50.8, "unit": "ng/mL"}, {"measurement": "EC50 (ng/ml) by PRNT assay; Batch 1, stored at 2-8° C., 6 months", "setting": "[1]", "result": 24, "unit": "ng/mL"}, {"measurement": "EC50 (ng/ml) by PRNT assay; Batch 1, stored at 2-8° C., 9 months", "setting": "[1]", "result": 23.4, "unit": "ng/mL"}, {"measurement": "EC50 (ng/ml) by PRNT assay; Batch 2, stored at 2-8° C., 0 day", "setting": "[1]", "result": 22.5, "unit": "ng/mL"}, {"measurement": "EC50 (ng/ml) by PRNT assay; Batch 2, stored at 2-8° C., 3 months", "setting": "[1]", "result": 22.4, "unit": "ng/mL"}, {"measurement": "EC50 (ng/ml) by PRNT assay; Batch 2, stored at 2-8° C., 6 months", "setting": "[1]", "result": 16.6, "unit": "ng/mL"}, {"measurement": "EC50 (ng/ml) by PRNT assay; Batch 2, stored at 2-8° C., 9 months", "setting": "[1]", "result": 19.6, "unit": "ng/mL"}, {"measurement": "EC50 (ng/ml) by PRNT assay; Batch 1, stored at 2-8° C., 0 day", "setting": "[2]", "result": 5.9, "unit": "ng/mL"}, {"measurement": "EC50 (ng/ml) by PRNT assay; Batch 1, stored at 2-8° C., 3 months", "setting": "[2]", "result": 8.03, "unit": "ng/mL"}, {"measurement": "EC50 (ng/ml) by PRNT assay; Batch 1, stored at 2-8° C., 6 months", "setting": "[2]", "result": 3.58, "unit": "ng/mL"}, {"measurement": "EC50 (ng/ml) by PRNT assay; Batch 1, stored at 2-8° C., 9 months", "setting": "[2]", "result": 3.31, "unit": "ng/mL"}, {"measurement": "EC50 (ng/ml) by PRNT assay; Batch 2, stored at 2-8° C., 0 day", "setting": "[2]", "result": 3.26, "unit": "ng/mL"}, {"measurement": "EC50 (ng/ml) by PRNT assay; Batch 2, stored at 2-8° C., 3 months", "setting": "[2]", "result": 5.69, "unit": "ng/mL"}, {"measurement": "EC50 (ng/ml) by PRNT assay; Batch 2, stored at 2-8° C., 6 months", "setting": "[2]", "result": 4.15, "unit": "ng/mL"}, {"measurement": "EC50 (ng/ml) by PRNT assay; Batch 2, stored at 2-8° C., 9 months", "setting": "[2]", "result": 2.87, "unit": "ng/mL"}, {"measurement": "EC50 (ng/ml) by PRNT assay; Batch 1, stored at 2-8° C., 0 day", "setting": "[3]", "result": 14.4, "unit": "ng/mL"}, {"measurement": "EC50 (ng/ml) by PRNT assay; Batch 1, stored at 2-8° C., 3 months", "setting": "[3]", "result": 14.7, "unit": "ng/mL"}, {"measurement": "EC50 (ng/ml) by PRNT assay; Batch 1, stored at 2-8° C., 6 months", "setting": "[3]", "result": 5.58, "unit": "ng/mL"}, {"measurement": "EC50 (ng/ml) by PRNT assay; Batch 1, stored at 2-8° C., 9 months", "setting": "[3]", "result": 4.57, "unit": "ng/mL"}, {"measurement": "EC50 (ng/ml) by PRNT assay; Batch 2, stored at 2-8° C., 0 day", "setting": "[3]", "result": 13.2, "unit": "ng/mL"}, {"measurement": "EC50 (ng/ml) by PRNT assay; Batch 2, stored at 2-8° C., 6 months", "setting": "[3]", "result": 6.53, "unit": "ng/mL"}, {"measurement": "EC50 (ng/ml) by PRNT assay; Batch 2, stored at 2-8° C., 9 months", "setting": "[3]", "result": 7.05, "unit": "ng/mL"}, {"measurement": "EC50 (ng/ml) by PRNT assay; Batch 1, stored at 25° C., 0 day", "setting": "[4]", "result": 30.3, "unit": "ng/mL"}, {"measurement": "EC50 (ng/ml) by PRNT assay; Batch 1, stored at 25° C., 30 days", "setting": "[4]", "result": 35.3, "unit": "ng/mL"}, {"measurement": "EC50 (ng/ml) by PRNT assay; Batch 2, stored at 25° C., 0 day", "setting": "[4]", "result": 22.5, "unit": "ng/mL"}, {"measurement": "EC50 (ng/ml) by PRNT assay; Batch 2, stored at 25° C., 30 days", "setting": "[4]", "result": 30.7, "unit": "ng/mL"}, {"measurement": "EC50 (ng/ml) by PRNT assay; Batch 1, stored at 25° C., 0 day", "setting": "[5]", "result": 5.9, "unit": "ng/mL"}, {"measurement": "EC50 (ng/ml) by PRNT assay; Batch 1, stored at 25° C., 30 days", "setting": "[5]", "result": 5.6, "unit": "ng/mL"}, {"measurement": "EC50 (ng/ml) by PRNT assay; Batch 2, stored at 25° C., 0 day", "setting": "[5]", "result": 3.26, "unit": "ng/mL"}, {"measurement": "EC50 (ng/ml) by PRNT assay; Batch 2, stored at 25° C., 30 days", "setting": "[5]", "result": 5.51, "unit": "ng/mL"}, {"measurement": "EC50 (ng/ml) by PRNT assay; Batch 1, stored at 25° C., 0 day", "setting": "[6]", "result": 14.4, "unit": "ng/mL"}, {"measurement": "EC50 (ng/ml) by PRNT assay; Batch 1, stored at 25° C., 30 days", "setting": "[6]", "result": 9.63, "unit": "ng/mL"}, {"measurement": "EC50 (ng/ml) by PRNT assay; Batch 2, stored at 25° C., 0 day", "setting": "[6]", "result": 13.2, "unit": "ng/mL"}, {"measurement": "EC50 (ng/ml) by PRNT assay; Batch 2, stored at 25° C., 30 days", "setting": "[6]", "result": 9.25, "unit": "ng/mL"}, {"measurement": "EC50 (ng/ml) by PRNT assay; Batch 1, 40° C. study, Control, 0 day", "setting": "[7]", "result": 6.66, "unit": "ng/mL"}, {"measurement": "EC50 (ng/ml) by PRNT assay; Batch 1, 40° C. study, Control, 7 days", "setting": "[7]", "result": 6.37, "unit": "ng/mL"}, {"measurement": "EC50 (ng/ml) by PRNT assay; Batch 1, 40° C. study, Control, 14 days", "setting": "[7]", "result": 6.18, "unit": "ng/mL"}, {"measurement": "EC50 (ng/ml) by PRNT assay; Batch 1, stored at 40° C., Test, 7 days", "setting": "[7]", "result": 26.9, "unit": "ng/mL"}, {"measurement": "EC50 (ng/ml) by PRNT assay; Batch 1, stored at 40° C., Test, 14 days", "setting": "[7]", "result": 36.1, "unit": "ng/mL"}]}
